Measurements published in the NTF2 design screens of Basanta et al. (2020).

Test: protease stability score; higher = more stable; yeast display proteolysis, trypsin and chymotrypsin;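 further: relative to predicted unfolded state with 0 unfolded-like and 1 meaning tenfold more protease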

Sequence | protease stability score
DHEEHLSHIALRESMEYLETGDPRKYTELMDPNVKLRVDINGKQIEFHGREEASRFMEHVQHEIKGARIETHSEDTQGNKIHMDLKLLINGKESKLIIIALKINGRWLVTSMEVHVK | 1.88
DHEEHYSRIAVQEVLHRMLTGDEESLVKLADPHTRMTIGDKELHGWELVFEFLRDWVHKFKNIRLHIHQHEVQGDKIHIEIRVLIDGKEQDVKIHAEKIDGKWIYRQSHFR | 0.751
DHEEKAKKFFDDLLRAVKHNDETQLERLFDKNVRFNVGEHNFRGREEFVKMVRTMVEQVDHVTATIVSIETNGDKVNLVAQWDMSHNGNSKRIRVLVVLDDNNGRVVAREMSEK | 1.98
DHEEKEARRLLELIWKLIQTGDEHFLRELMDPHARISIDGVRLHGMEDIREFLHRYFKHHGYRWHRQRETEKHVVNGVQILFGEHDGEVDGKRDNTRSRLIFLVIDGKLQELEVNNV | 0.855
DHEEKHLEHFLHLITHLEHTGDERTLEKLVDPHVRHEFNGKELHGRERAVRWSEELRQKMGADHWSIKRVNVFDGVVHLHTELEVNGVRVHFHIDVRVVDGRVKHIKIRNE | 0.861
DHEEKHMIKIARLILLLWFTGDEDTFSRLADPNVRVIIIWNGKEIHSHGMERFSEDRKRHEEEMRLKDFRIDEVRAVGDKIHMRVTIHLIQGDKEREIDLEIRIVLVNGKLKTIEFIFH | 2.63
DHEEKIWEEVLKELVHQFLTGDWKTRTQMADPEVRVESRVGDKFVRMHGREYLRMLMEFLHEQIKNATVTLHSFRVVDGRNEIKLRAEIGDKTHEIDMHYFVVDGRIKSLHVRTWEL | 1.05
DHEEKKAKELLHLIVELLITGDEDTLSRLLDPNTRWIINGRHLHGMHVFEEWVRRLKEQYKGVTVHIEIEDSKVVGEKARSEIRLIINIGDKVHDIESRLEIVVIDGKMRSLRFEFK | 1.19
DHEEKLSEDISRFLLELYLTGDPERLAKNADPNTKLIIDINGRHEDIHGREYIYKWSLDWFRKAGVTRVEFDLRSMDVQGEKAVIHGVNRVGDKDRHMTEIWIVVNGKLKEVRVKLE | 1.28
DHEEKLYELEIRLLQEIVETGDEETSHRLADPHARLNINGRHLVGREHFREFVHKIKGARLDIEEVRVQGDKVIIHGRWIQGDKELDVDFISRKIDGKWKFHSIHVH | 1.33
DHEENMLKLMVTLWTQSLRTGDEDTLFRLMDPHARDVVGDKEFHGREEVKHHLRELLLEIRIEDSHVEDFRVYDGVAEIDTRQHGIFNGKRLEYETRILVLKVNGRWIFTHVERR | 0.592
DHEERIISEQLKIELESTATGDESTLEELVDPTTKININGKHLHGRESILKLLVEYARRADHIEIRPEHVEVYGNKLIIHGEIRIEVGDKRHSTKVLLILRKVNGRWRLTEEKWD | 1.65
DHEERNIEDFLRELLHSLITGDEHTYRRLMDPNMQLFVDGRTFVGWKEALKWYQEILRRIDVIENIEIEQFSVFDGRVFVRVHLHMRVGDKTHHSFVHILLVKINGKWRLEEHEVV | 1.79
DHEFEDSKRATEETLHLIETGNEEKIRQLADPHVRIIIFINGRDIHLHGREELSRHISEMGVDHRRWTELRLFEGHAENDVKVNFNGREFKVIIFVRKVNGRWVIERLEVHVI | 2.25
DHEHEEFEENLEHFEHHMKTGDFELLLKLADPHVKIHVNGRDYHGWEELKRVLETLGISKVKVEFHRIHLINGVAFNDGKMEVNGVHTKTHYVAKKVNGRWFMRSMEMN | 0.775
DHEHRELRELIHRIEKNIRTGNWDVVEKMLDPHARIDIDGKEIHGRDRLVEEMVKQWEKMGVDHIEIKLEDYKVSENEVYLDMIFVIRVGDKVIFIDSHIISRKIDGRWIIHSIHFR | 1.95
DHEHRFMEETLERLLHVWRTGDESLIHELADPEARSDVNGREHHGRERFVDTVRHLGVKHVELKDWTIQGEKVHLSTEVDVGDKTFDFEIIIYKINGKWLIHEMRVK | 0.945
DHEKENIERSSRIMLRLYETGDEDELRKLADPHARSEVGEFEYHGREEVFRWLNLLIRELGAKHITIRDIKYVGNKLTLHMISHVDGRELNLEIWAIKIDGQWLLTTVHHK | 0.69
DHEKEVAERIMRLLFHQLETGDWRLESKMADPNVRLNFNGVHLHGMETSVKWLEELRIHSFRIRDMRIDIINGVAVADNDTETEITFDGVRIRTRTHLHIFVSKFDGRWHVSEIEIRIR | 0.094
DHEKKEIEDLLRELFEALFTGDEHILHRLLDPRTKLVINGRNYHGRETVRRFVLHIRIFFHHIEIESSEIQGEWIHLHIRVDFREEQGDKERRIDTHAVMHMLKVNGRWVIHEIVLH | 1.54
DHEREDMRRFVQEVLRVIETGDEDIYMRLLDPHYKVDFNGREIIGREELLRFFRDLGVDRIEADKEDVRSQGDKVITNTHITVNGRRIEMRVIVIKIDGQWVLHSLEFR | 1.2
DHETRWLRHVLKIWDHMVETGDWEKSERLADPNTKLVIDGVDLHGRRDYNRHMRELRVHHTEINDVELTNIGDKVHLYREVDYDITVDGRRIITHIELFLIIRKVDGRWILEEQEVNFR | 0.236
DHEVAKTMMEEWQKALENGDDKKLKELYDPDGEWEADDEQDQGTEVIEKLMEKVKKQGLKFQVRKAKVEGDKFTVVYDLHVGNKTATFEVEVHVEGGRIKKVKAKADEEAKKLITEG | 2.05
DHHEEASHRVIEILLRAHRTGDWHELLRMMDPNTMLIVGDKTFHGREELEKILRHFVERAITIHDIKIESVENQGDKIHVHGHIDKRVNGRQVSIETEIDILKVNGRWFISTLRYH | 1.89
DHHEEIMVTIMELLVRWLETGDEKSLVELLDPDVRHDVNGVDLHGREHVSRWMREHLERYDHLEVEITHIEVQGDKVHLDGTLILIFNGRNVVMKVHIHTIIVNGRAHELRFRTE | 0.698

Sequence | protease stability score
DHHEELRHWFLEIYRRIMITGDEKELEKLIDPHAKLRINGREHVGMEYIQRIFDLLRHEIRFKDMDIREYHLVDGQIDDHSVLTLHINGKEVTRETRIVNRKVNGRWKIEVESIH | 0.622
DHHEELVERIAREWIHAWKTGDEKRLRELMDPHVRMNFNGQELHGRELVTNFLHEFLERFDHQEHHIKRFTVVNGVMHIDGELDLNFDGRRYRHRVHIHIFVFDGRVKHVEIEIR | 2.29
DHHEETIRHFAKLWVELWLTGDEKSLQTLADPHVRVHINGVDLHGRDAIHHFLRRIEERYKGLRIDVEEQRIVNGRTEMITEIHIGDKVWRTRLHVVVVDGRIHELSFKDE | 2.25
DHHEHDTKILMDLWLHALTTGDWRLLAELADPHVRFEVEFDGRRIEYHGRHSFEEHMKRLVDKIKNLTLTIHDVRVIGDFVHIEGETTWDGRTSSIHIHLKVINGRVKHIKVEER | 1.92
DHHEKHLKHIFHLYIRAWITGNEKEMQDLADPNVRMHVGDKHVHGREEVRRLHHHLLTHIRLDHFHIDDHRVYDGVVEVKGIEDHNVNGQRHRFESTWIIVIVNGRIEEIEIRVH | 1.16
DHHKESSEYLVRDYYEYIETGDFKRMEELADPNMKVVVGDKTHHGRESLSVVYLRLGIKHWDIKRIHNIGNKIRIHSTIFVDGVDMHEHSHAEKIDGRWLLRELSFE | 0.319
DHHRKETEELAELFFENLLTGNWEIHEHLLDPDVKLEQGDKINVGRESYSEWLEYVKKHIRIRDWKIRHVHVFNGRVHLETEVHMEYGDKHHVVDMHISIDVINGRFKTVRIEIK | 2.1
DHIDEDAAHVSRVLLTLLRTGDEETLFQLLDPNMRVDVNGVELHGREEWWKHVYRRNKELGMEVKYHLHKLTVINGVAHIDFRIEIYIGDKRIEYRHEVHIEKINGVWLVREIREG | 1.47
DHIEEDIEEAERIMKEVNHTGDWETLERNFDPNVRLDIDGRTFHGMETYTKWFREIRIEDSRVKSIELQGDKIRYDTILHGIINGKRDTVKTHLIAVKVNGRWFIKVYSLH | 1.05
DHIEEELIRWLELLRNALETGDEELVVKLVDPRYRLIIGDKHHHGMEEWSKILKEESERVKNARIELHLRHLRLFNGQADMEVENVVRYNGVTIIIDVRIHLLKVNGRWKEREVREG | 1.33
DHKDELAHRLVEHILKLLLTGDEEHWYELLDPNVRIHINGRNSVGREEALKVIQFFWELLGVKHIELKEVRFQGDKVHSDTRLDINGVKSRVRIEVIIINGRIDEVRIDIR | 2.25
DHKDELNEHIMKVWIHFLETGDEEFLYDLMDPHARLDFNGREIHGREILYEFWKRWNKRFPNRIDFLDSVRVIGDKVEMDTTLRIDGVRHETEIRIHVYDGKLKHIEYHIR | 1.4
DHKEARDVAQTMMHLLKHGDFEQIVRNADPNAHFVVGDKEYHGRDNLRKVLKRLHDQVDHISFRTYKVDEDTAKLDATVQINGRNYRMDVLVHFHNGRIKDLNIKVTDEDTQREADK | 1.57
DHKTKMREHAVHEWFDDVITGDERRIREYADPNVRIDIDINGRHEELHGRELFSEILTRFKNVQVEIKHVNHIGDKLHIHFRVHIDGREENVIIIMHKVDGKWVTKRFIIDDA | 1.05
DHLDERAERFFLKLVENLLTGNEEIWEELIDPNMRFHAENHSDHGWEVIRRWMERLIERFDHIEIRVHRLRFQGDKVHSDVRVHYEQGDKREEINMHIIIIIINGRIHTIRLIIL | 0.308
DHLEDDLDHYIRVLIKSWQTGDEELTEKLIDPRVRVEVGDKEFHGRKIFSEIAVHWRIKHHTIEHINTVGDKATIHSHVVLHFDGREITTTTIYFIEKVNGKWLLKSMHIQ | 2.5
DHLEDTFRELTRILWEALHTGDWEIRRHYADPNARFQMHINGVELRDHGMDQLSRKYEEWYRRVDHYEVRIKDRRYQGDKMIIHVHIRVKINGKEIHYDVILYIIVVNGRIEEESEEVR | 1.34
DHLEEDSERAKELFIKVFKTGDEHIIKEMIDPHARLDWNGQEFHGREEVTRVMHELLEEYGIKHLHVRRFKVVNGRVEIDTELRQGDYRDESIIIILKVNGKWLIHSIEFK | 2.12
DHLEEIADKMAKDFIHIFLTGDEHLHNRLADPNVRLHVNGRDSHGRENWSRMLTQILREMRVKDIKITSSEVQGEWSVSRTRMNVDIDGKVEEIETEIIILVVNGKLESSTIVID | -0.103
DHLEELHETITKLWLEARRTGDEHLFRELMDPHVRIHIGDFEHHGREEALKAFDDIDRHLGVKHHHVDSWHVVNGQMIIDGRLHFDGQTRKVHIDLVIIDGRIEEIREEIR | 0.617
DHLHEDSKEAFHLWKELSRTGDPKEFADNVDPNVRILINGKRYHGMEHLEHLMMELGIKHSEITRIDTIGDKLHLDGHNRFNGRTVDVHILSNKINGRWVIEEVEVL | 1.14
DHLRELMERVLERYRRALETGNFEELRNLADPHYRVDIDGQELIGMDEYKRHLIKIKNLKIHHVEIKDVKVQGDKAHVDQEDDIEFDGRRMRLRLHYIWLKFNGRWLLHSMEVE | 1.85
DHLRHTVERMVLHLLRLSLTGDEEEWLKLLDPNTKLEVGDKTRHGREDVAQFLLEMRVERVEVSDYRFNNVNGVVRVEIDGHFDFEYDGKREDSRVEIYLLFEKVNGKWHLKFVKVVFK | 1.69
DHMDEELKEFLRHFLEYFRTGDFDSLYKLIDPHVKSDINGQEIHGMDLQSFWHRHIRERLGVNHMHIEITEIRYINGRAEVYGKLEVNVNGKRFEHDVHMFNLKVDGKWILESLEIR | 2.28
DHMEEDVRVAVKIWEETYRTGDEQEINDLVDPNVRVNINGQDYHGRHWLRQIIIEDRRRADHIEIRIDHIEVIGDKVILRGLVIMIQGDKRFDIRMRIFDRKVNGRWHLHNLEQE | 2.08
